Source: patent US20230149465A1

Target: human IFNγ (human) (UniProt P01579)
Assay: cell-based or functional assay

UniProt P01579, sequence (P01579 24-166 limits assumed): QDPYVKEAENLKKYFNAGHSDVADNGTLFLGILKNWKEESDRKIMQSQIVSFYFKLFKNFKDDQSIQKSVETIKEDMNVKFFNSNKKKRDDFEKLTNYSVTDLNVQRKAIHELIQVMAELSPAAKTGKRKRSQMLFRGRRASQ

Substance: Amg-HL, anti-IFNγ scFv from AMG811 (heavy chain variable region to light chain variable region)
- inhibition of IFNγ signaling at dilution 0.5 of supernatant, HEK-Blue IFNγ reporter cells: 80%
